In experiment [1] the target is T1, TIGIT on thaw-and-use TIGIT effector cells (TIGIT/CD155 blockade bioassay kit, Promega J2305) (UniProt Q495A1 22-244, limits assumed).
T1 sequence (looked up): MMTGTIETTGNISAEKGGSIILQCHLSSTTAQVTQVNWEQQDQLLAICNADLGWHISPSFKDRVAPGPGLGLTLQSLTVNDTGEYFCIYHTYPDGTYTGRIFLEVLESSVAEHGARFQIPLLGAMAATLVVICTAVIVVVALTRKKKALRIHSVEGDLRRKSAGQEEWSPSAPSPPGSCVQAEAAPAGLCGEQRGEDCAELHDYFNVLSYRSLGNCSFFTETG
The experiment is described as follows: cell-based or functional assay.

The target in experiment [2] is T2, TIGIT on the TIGIT-overexpressing Jurkat cell line (Jurkat-TIGIT) (Homo sapiens (Human), UniProt Q495A1 22-244).
T2 construct: Jurkat E6.1 cells transfected with 'TIGIT cDNA'; also called TIGIT expressed on the cell surface
T2 sequence: T1 sequence (looked up) with T82A
The experiment is described as follows: flow cytometry on Jurkat-TIGIT cells, antibody 25 to 0.00032 ug/ml, PE goat anti-human Fab'2, MFI.
Protocol: The cells were resuspended in FACS buffer so that the number of cells was 3×10⁶ cells/ml, and 100 μl of the suspension was added to each well of a U-bottom 96-well plate. Then, the cells and culture solution of each well were recovered and centrifuged at 1,500 rpm, and then the supernatant was discarded. […] This series of processes was repeated twice. Phycoerythrin (hereinafter, referred to as “PE”)-conjugated goat anti-human Fab′2 (Sigma; Cat. #P8047) was diluted in FACS buffer at a volume ratio of 1:500, 100 μl thereof was added to each well, and the reaction was allowed to proceed in the dark at 4° C. for 30 minutes. The cells reacted with PE were recovered, resuspended in FACS buffer, and centrifuged at 1,500 rpm, the supernatant was discarded, and the residue was washed. This series of processes was repeated twice. […] The cells reacted with the fixation buffer were recovered, resuspended in FACS buffer, and centrifuged at 1,500 rpm, the supernatant was discarded, and the residue was washed. This series of processes was repeated twice. The washed cells were resuspended in 200 μl of FACS buffer, and then the median fluorescence intensity (MFI) of PE with which the cells were labeled was compared using a FACS LSR-Fortessa instrument. All FACS analysis was performed using FlowJo software.

The target in experiment [3] is T3, human TIGIT-His antigen (human, UniProt Q495A1 22-141).
T3 construct: not shown: His tag
T3 chain: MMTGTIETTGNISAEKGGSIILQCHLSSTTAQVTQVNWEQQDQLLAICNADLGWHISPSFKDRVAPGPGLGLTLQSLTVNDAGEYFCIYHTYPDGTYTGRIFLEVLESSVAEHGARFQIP
The experiment in a line: SPR (Biacore), antibody (WIN-1B6 IgG4) captured on an anti-protein A CM5 chip, TIGIT-HIS as analyte in 1/2 serial dilution, contact 120 s, dissociation 600 s. Background: Surface plasmon resonance follows binding to a sensor surface in real time, without labels.

The target of experiment [4] is T3, human TIGIT-His antigen. The experiment in a line: Octet (BLI), human TIGIT-HIS on penta-His sensor, antibody in solution. (In BLI a coated tip is dipped into the sample, and binding shifts an interference pattern.)
Protocol: A 5 μg/ml of human TIGIT-HIS was prepared by diluting the same in a 1×KB buffer. Anti-human TIGIT antibodies were prepared through ½ serial dilution with 1×KB buffer from a starting concentration of 100 nM.
Experiment [5] addresses T2, TIGIT on the TIGIT-overexpressing …. The experiment is described as follows: competition in flow cytometry: Jurkat-TIGIT cells preloaded with PVR-Fc, then antibody; PVR left on the cells detected with anti-PVR-PE, MFI falls with the antibody concentration; the sheet calls the half-maximal value EC50.
Protocol: The TIGIT-overexpressing cell line (Jurkat-TIGIT) was resuspended in DPBS supplemented with 2% (v/v) FBS (hereinafter, FACS buffer), centrifuged at 1,500 rpm, and resuspended in FACS buffer so that the number of cells was 3×10⁶ cells/ml, and 100 μl of the suspension was added to each well of a U-bottom 96-well plate. Then, the cells and culture solution of each well were recovered and centrifuged at 1,500 rpm, and then the supernatant was discarded.
This series of processes was repeated twice. […] This series of processes was repeated twice. […] This series of processes was repeated twice. […] The cells reacted with the fixation buffer were recovered, resuspended in FACS buffer, and centrifuged at 1,500 rpm, the supernatant was discarded, and the residue was washed. This series of processes was repeated twice. The washed cells were resuspended in 200 μl of FACS buffer. Then, the median fluorescence intensity (MFI) of PE with which the cells were labeled was compared using a FACS LSR-Fortessa instrument. All FACS analysis was performed using FlowJo software.
The target in experiment [6] is T4, human TIGIT-Fc antigen (human, UniProt Q495A1 22-141).
T4 construct: not shown: Fc part
T4 chain: T3 chain
The experiment in a line: ELISA, IgG titrated on plate-coated human TIGIT-Fc.

The target in experiment [7] is T5, mouse TIGIT on transfected HEK293 cells (mouse, UniProt P86176 29-249).
T5 construct: whole, on cells; GFP-expressing cells were gated; also called TIGIT of mice
T5 sequence (looked up): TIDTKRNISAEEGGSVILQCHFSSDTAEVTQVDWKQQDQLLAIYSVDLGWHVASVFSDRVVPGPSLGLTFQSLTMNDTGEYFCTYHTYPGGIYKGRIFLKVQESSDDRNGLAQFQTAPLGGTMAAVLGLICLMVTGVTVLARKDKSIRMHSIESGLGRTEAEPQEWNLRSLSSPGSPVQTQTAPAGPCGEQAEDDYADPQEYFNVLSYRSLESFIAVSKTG
The experiment is described as follows: flow cytometry on HEK293 cells transfected with mouse TIGIT. A general note: Flow cytometry measures light scatter and fluorescence of single cells or particles in a stream.
Protocol: The result was washed once with PBS, and then the cells were resuspended in FACS buffer to a concentration of 5×10⁵ cells/100 μl. 1 μl of a human Fc block solution was added to each sample and reacted at 4° C. for 10 minutes. […] The result was centrifuged in 200 μl of FACS buffer at 1,200 rpm for 5 minutes to remove the supernatant. The cells were resuspended in 300 μl of fixation buffer. The cells expressing GFP were screened using a FACS LSR-Fortessa instrument, and TIGIT candidate antibodies were identified using a PE fluorescence channel and analyzed using FlowJo software.

Experiment [8] has as its target T4, human TIGIT-Fc antigen. The experiment in a line: ELISA, IgG titrated on plate-coated human TIGIT-Fc.
Protocol: 50 μl of the human TIGIT-Fc antigen was added at a concentration of 3 μg/ml to an ELISA plate, incubated at 4° C. overnight, and then blocked with 1% BSA in PBS at room temperature for 2 hours. […] The result was washed 3 times with PBST (0.05% Tween 20 in PBS), and 50 μl of anti-His-HRP was diluted 1/1000 in PBS and then reacted at room temperature for 1 hour. The result was washed 3 times with PBST (0.05% Tween 20 in PBS), and 50 μl of a TMB solution was added thereto. The result was allowed to react at room temperature for 5 minutes, 50 μl of a TMB stop solution was added thereto, and the absorbance was measured at 450 nm in an ELISA leader.
Experiment [9] deals with T3, human TIGIT-His antigen. The experiment is described as follows: SPR (Biacore), antibody captured on an anti-protein A CM5 chip, TIGIT-HIS as analyte in 1/2 serial dilution, contact 120 s, dissociation 600 s.
Protocol: (§1) 10 μg/ml of anti-protein A was prepared by diluting the same in an acetate 4.0 buffer. 100 nM NHS, 400 mM EDC and 1 M ethanolamine were prepared. The sensor chip used herein was a CM5. The contact time was set at 300s (5 min), the flow rate was set at 5 μg/ml, and the immobilization level was set at 2,500 RU. After performing running, whether the RU reached the target level was monitored in the system control window.
(§2) When running was completed, ka, kd, and KD were obtained by fitting using evaluation software.
Experiment [10] concerns the target T1, TIGIT on thaw-and-use TIGIT effector …. The experiment is described as follows: cell-based or functional assay. The source holds these as a separate data set.
For experiment [11], the target named is T3, human TIGIT-His antigen. The experiment is described as follows: SPR (Biacore), antibody (1G8 IgG4) captured on an anti-protein A CM5 chip, TIGIT-HIS as analyte in 1/2 serial dilution, contact 120 s, dissociation 600 s.
Protocol: as §1, §2

Substitutions are numbered along the chain they refer to. Where two headings read alike, the source gives them in different places.

B1: WIN_1B6 (IgG-type anti-TIGIT antibody) (antibody, V domains shown)
VH: QVQLVQSGAEVKKPGASVKVSCKASGYTFTSYGISWVRQAPGQGLEWMGWISAYNGNTNYAQKLQGRVTMTTDTSTSTAYMELRSLRSDDTAVYYCARAGWEQQLGFDYWGQGTLVTVSS
VL: AIQLTQSPSSLSASVGDRVTISCRASQTIRSYLNWYQQKPGKAPKLLIYAASSLQSGVPLRFSGSGSGTDFTLTISSLQPEDFATYYCQQSYSTLPLTFGGGTKVEIKR
notes: section 4.2 is headed 'Conversion to IgG4-Type Anti-TIGIT Antibodies'
With B1, in experiment [1], the “EC50 of bioluminescence (RLU), TIGIT/CD155 blockade bioassay: TIGIT effector cells with CD155 aAPC/CHO-K1 cells” value (from here on “EC50 … with CD155 aAPC/CHO-K1 cells”) is 11.8 nM. Moreover, the results for the concentration for a half-maximal effect (EC50) (in [2]; in [5]; in the experiment with human TIGIT-Fc antigen [6]) were 0.016 µg/mL, 0.068 µg/mL and 0.86 nM, respectively. The dissociation constant (Kd) (usually the free concentration of one partner at which half of the binding sites on the other are occupied at equilibrium, for simple one-to-one binding) was 21.4 nM with human TIGIT-His antigen [3] and 0.443 nM with human TIGIT-His antigen [4]. In addition, the figures for the dissociation rate constant (koff) in the experiment with human TIGIT-His antigen [3] and with human TIGIT-His antigen [4] were 0.0245 s⁻¹ and 0.000206 s⁻¹, respectively. Further, the results for the on-rate constant (kon) with human TIGIT-His antigen [3] and with human TIGIT-His antigen [4] were 1.15e+06 M⁻¹ s⁻¹ and 465000 M⁻¹ s⁻¹, respectively. Further, in experiment [7], the binding result is listed as “no binding (tested: 1 µg/5×10^5 cells)”.

B2: WIN_1D2 (IgG-type anti-TIGIT antibody) (antibody, V domains shown)
VH: B1 VH
VL: B1 VL with S22T, T28S, R30S, L60S, P96A, L97I, G101Q, K104R, V105L
notes: as for B1
Turning to B2, the EC50 (as a rule, the concentration at which the effect is half-maximal) with human TIGIT-Fc antigen [8] was about 1 nM; in [2], 0.017 µg/mL; in experiment [5], 0.071 µg/mL; in the experiment with human TIGIT-Fc antigen [6], 1.75 nM. In addition, the “EC50 … with CD155 aAPC/CHO-K1 cells” value in experiment [1] is 27.3 nM. Further, binding with human TIGIT-His antigen [4] was characterised by a dissociation constant (Kd) of 0.571 nM. The off-rate constant (koff) (in general, the first-order rate constant of dissociation) with human TIGIT-His antigen [4] came to 0.000278 s⁻¹. Moreover, the kon (usually the second-order rate constant of association) with human TIGIT-His antigen [4] was 488000 M⁻¹ s⁻¹. The binding result in experiment [7] is on record as “no binding (tested: 1 µg/5×10^5 cells)”.

B3: 1F10 (IgG-type anti-TIGIT antibody) (antibody, V domains shown)
VH: EVQLVESGGGLVKPGGSLRISCAASGFTFSNYNMIWVRQAPGKGLEWVSSISSSASYIYYADSVKGRFTISRDNAKNSLYLQMNSLRAEDTAVYYCARDEGSRDSWNNGPYYYSGMDVWGQGTTVTVSS
VL: AIQMTQSPSSLSASVGDRVTITCRASQSISRYLNWYQHKPGKAPKLLIYGASSLQSGVPSRFRGSGSGTDFTLTISSLQPEDFATYYCQQSYTTPGAFTFGGGTKVEIKR
notes: as for B1
Take B3: the “EC50 … with CD155 aAPC/CHO-K1 cells” value in experiment [1] was 35.7 nM. Also, the EC50 turned out to be 0.08 µg/mL in [2], 0.38 µg/mL in [5] and 5.35 nM with human TIGIT-Fc antigen [6]. In addition, the affinity with human TIGIT-His antigen [4], expressed as Kd, was 1.32 nM. Moreover, the off-rate (koff) with human TIGIT-His antigen [4] came to 0.000232 s⁻¹. This molecule showed an on-rate constant (kon) with human TIGIT-His antigen [4] of 176000 M⁻¹ s⁻¹. Besides, in experiment [7], the binding result is listed as “no binding (tested: 1 µg/5×10^5 cells)”.

B4: reference antibody (anti-TIGIT) (antibody, V domains shown)
VH: EVQLQQSGPGLVKPSQTLSLTCAISGDSVSSNSAAWNWIRQSPSRGLEWLGKTYYRFKWYSDYAVSVKGRITINPDTSKNQFSLQLNSVTPEDTAVFYCTRESTTYDLLAGPFDYWGQGTLVTVSS
VL: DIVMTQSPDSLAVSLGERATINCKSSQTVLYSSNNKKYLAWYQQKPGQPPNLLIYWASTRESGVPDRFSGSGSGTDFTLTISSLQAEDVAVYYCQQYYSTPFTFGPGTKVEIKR
With B4, in [1], the “EC50 … with CD155 aAPC/CHO-K1 cells” value came out at 6.1 nM. For the same molecule, in the experiment with human TIGIT-His antigen [9], binding was characterised by a dissociation constant (Kd) of 0.375 nM, the dissociation rate constant (koff) was found to be 0.000233 s⁻¹ and the on-rate (kon) was 622000 M⁻¹ s⁻¹.

B5: 1G8 (IgG-type anti-TIGIT antibody) (antibody, V domains shown)
VH: EVQLVQSGAEVKKPGASVKVSCKASGYTFTSYYMHWVRQAPGQGLEWMGIINPSGGSTSYAQKFQGRVTMTRDTSTSTVYMELSSLRSEDTAVYYCASRSGSGWFGALDYWGQGTLVTVSS
VL: not shown
notes: section 4.2 is headed 'Conversion to IgG4-Type Anti-TIGIT Antibodies'; also called TIGIT candidate antibody (1G8)
For B5, the EC50 in the experiment with human TIGIT-Fc antigen [8] is about 1 nM; in experiment [2], 0.017 µg/mL; in experiment [5], 0.093 µg/mL; with human TIGIT-Fc antigen [6] it was 1.63 nM. The equilibrium dissociation constant (Kd) with human TIGIT-His antigen [4] is 0.224 nM; in the experiment with human TIGIT-His antigen [11] it was 0.59 nM. In addition, the koff came to 9.32e-05 s⁻¹ with human TIGIT-His antigen [4] and 0.001 s⁻¹ with human TIGIT-His antigen [11]. Also, the on-rate (kon) with human TIGIT-His antigen [4] turned out to be 415000 M⁻¹ s⁻¹; with human TIGIT-His antigen [11], 1.78e+06 M⁻¹ s⁻¹. Moreover, in experiment [10], the “EC50 of T-cell activation (luminescence, TIGIT/CD155 blockade bioassay with TIGIT effector cells and CD155 aAPC/CHO-K1 cells)” value turned out to be 2.1 nM. Also, the binding result in [7] was “no binding (tested: 1 µg/5×10^5 cells)”.

B6: 1E8 (IgG-type anti-TIGIT antibody) (antibody, V domains shown)
VH: QVQLVQSGTEVKKPGASVKVSCKASGYTFSSYAITWVRQAPGQGLEWMGWISAYNGNTNYAQKLQGRVTMTTDTSTSTAYMELRSLRSDDTAVYYCARVDFWSGYNYFDYWGQGTLVTVSS
VL: DIQMTQSPSSLSASVGDRVTITCRASQGISNYLAWYQQKPGKVPKVLIYAASTLQSGVPSRFSGSGSGTDFTLTISSLQPEDVATYYCQKSNSAPLTFGGGTKVEIKR
notes: as for B1
B6: the concentration giving a half-maximal response (EC50) was about 1 nM in the experiment with human TIGIT-Fc antigen [8], 0.021 µg/mL in experiment [2], 0.102 µg/mL in experiment [5] and 1.73 nM in the experiment with human TIGIT-Fc antigen [6]. Also, in [1], the “EC50 … with CD155 aAPC/CHO-K1 cells” value was 19.1 nM. Further, binding with human TIGIT-His antigen [4] was put at a Kd of 0.937 nM. The molecule also registered a koff with human TIGIT-His antigen [4] of 0.000528 s⁻¹. Besides, the on-rate (kon) with human TIGIT-His antigen [4] worked out at 563000 M⁻¹ s⁻¹. In addition, the binding result in experiment [7] is on record as “no binding (tested: 1 µg/5×10^5 cells)”.

These data come from US20220162310A1 (GREEN CROSS, published 2022).
